Laboratory results published in the MegaScale stability set (Tsuboyama et al. 2023).

B1: HEEH_KT_rd6_3546 (parent)
chain: SEEDKEREHWERLNRDFELRVLDTTFIAHHAEEVIKLLRWLEK

Variants of: B1
Assay: folding stability dG (cDNA display proteolysis); higher = more stable
Conditions: PBS, room temperature

Variant	folding stability dG [kcal/mol]
D23H	2.01
D23P	1.35
D23Y	2.92
D23L	2.86
D23F	3.18
D23S	1.94
D23M	2.76
D23I	3.03
D23N	1.45
D23Q	1.64
D23W	2.85
D23T	2.27
D23A	2.35
D23K	1.6
D23R	1.87
D23E	1.29
D23G	1.64
D23V	3
E11G	1.76
E11Y	2.17
E11I	2.17
E11N	1.59
E11A	2.07
E11L	2.11

Variant	folding stability dG [kcal/mol]
E11S	2.16
E11K	1.69
E11H	1.79
E11D	1.55
E11F	2.43
E11T	1.91
E11M	1.9
E11W	2.37
E11P	1.71
E11V	1.52
E11R	2.11
E11Q	1.73
V21M	1.41
V21H	1.22
V21P	0.85
V21Q	1.3
V21I	1.84
V21R	1.41
V21E	1.06
V21K	1.03
V21A	1.33
V21Y	1.5
V21L	1.85
V21F	1.72

Variant	folding stability dG [kcal/mol]
V21G	1.49
V21N	1.23
V21T	1.27
V21W	1.95
V21S	1.16
V21D	1.09
H9T	1.5
H9V	1.47
H9W	2.17
H9K	1.34
H9L	1.53
H9S	1.38
H9R	1.31
H9N	1.23
H9P	1.1
H9M	1.64
H9Q	1.35
H9Y	1.65
T25M	1.36
T25G	0.905
T25H	1.29
T25C	1.75
T25V	1.61
T25N	1.26

Variant	folding stability dG [kcal/mol]
T25P	0.992
T25A	1.46
T25F	2.35
T25K	1.16
T25I	1.7
T25S	1.52
T25L	2.18
T25Y	1.65
T25Q	0.911
T25W	2.16
T25E	1.31
T25R	1.41
T25D	1.2
I27E	0.508
I27D	0.608
I27K	0.613
I27F	1.58
I27L	1.37
I27H	0.648
I27C	2.33
I27A	0.784
I27G	0.669
L22E	0.622
L22R	1.07

Variant	folding stability dG [kcal/mol]
L22F	1.42
L22W	1.35
L22Q	0.891
L22G	1.48
L22T	0.948
L22P	0.989
L22M	1.3
L22S	0.925
L22K	0.899
L22N	1.06
L22I	1.53
L22Y	1.67
L22D	0.869
L22H	0.824
L22V	1.18
L22A	1.06
L19R	1.21
L19H	0.971
L19E	0.795
L19M	0.996
L19V	1.05
L19K	0.521
L19I	1.39
L19S	0.796

Variant	folding stability dG [kcal/mol]
L19W	1.49
L19N	0.808
L19Q	0.821
L19F	1.42
L19T	0.795
L19A	0.896
L19P	0.862
L19C	2.03
L19G	0.617
L19Y	1.14
L19D	0.732
D16W	2.27
D16T	2.31
D16Y	2.13
D16S	1.57
D16K	1.38
D16G	1.47
D16P	1.94
D16Q	1.6
D16F	1.96
D16R	1.76
D16H	1.93
D16N	1.59
D16M	1.73

Variant	folding stability dG [kcal/mol]
D16E	1.43
D16L	2.02
D16A	1.81
D16I	1.98
D16V	2.04
R20M	1.63
R20A	1.04
R20H	1.39
R20G	1.29
R20Y	2.39
R20P	0.684
R20W	2.38
R20K	1.36
R20L	1.93
R20T	1.4
R20E	0.819
R20V	1.68
R20S	1.35
R20N	1.23
R20F	2.21
R20C	2.37
R20Q	1.05
R20I	1.99
R20D	1.18

Variant	folding stability dG [kcal/mol]
W10G	1.12
W10N	1.15
W10Q	1.25
W10R	1.02
W10A	1.03
W10K	1.22
W10I	1.2
W10T	1.07
W10L	1.36
W10P	0.979
W10F	1.32
W10E	1.05
W10S	1.17
W10M	1.05
W10H	1.09
W10V	1.03
W10C	1.79
W10D	1.25
W10Y	1.09
L13N	1.43
L13F	1.7
L13A	1.17
L13T	1.52
L13K	1.4

Variant	folding stability dG [kcal/mol]
L13R	1.88
L13I	1.53
L13M	1.36
L13E	0.952
L13Q	0.972
L13G	1.16
L13W	1.75
L13V	1.39
L13Y	1.77
L13D	1.24
L13S	1.26
L13P	1.14
L13H	1.15
F17E	0.738
F17N	0.718
F17M	1.01
F17L	1.14
F17V	0.83
F17D	0.606
F17A	0.719
F17I	1.1
F17S	0.873
F17P	0.774
F17T	0.782

Variant	folding stability dG [kcal/mol]
F17Y	1.31
F17G	0.579
F17K	0.798
F17H	0.86
F17W	1.55
F17Q	0.444
F17R	0.912
F26H	0.83
F26L	0.925
F26W	1.7
F26Y	1.04
F26K	0.504
F26I	0.875
F26D	0.665
F26N	0.663
F26Q	0.576
F26V	0.759
F26R	0.974
F26A	0.696
F26P	0.393
F26E	0.588
F26G	0.568
F26M	0.674
F26T	0.642

Variant	folding stability dG [kcal/mol]
F26S	0.703
E18M	2.15
E18D	1.42
E18G	1.36
E18K	1.62
E18F	2.66
E18P	1.52
E18V	2.17
E18T	2.19
E18I	2.34
E18Y	2.4
E18H	1.79
E18S	1.83
E18W	2.88
E18L	2.33
E18A	1.79
E18Q	1.72
E18N	1.5
E18R	1.87
R12V	1.37
R12E	1.17
R12I	1.41
R12N	1.35
R12L	1.55

Variant	folding stability dG [kcal/mol]
R12C	1.6
R12G	1.16
R12Q	1.26
R12M	1.64
R12Y	1.66
R12T	1.53
R12D	1.65
R12W	2.2
R12F	1.76
R12A	1.32
R12K	1.29
R12P	1.08
R12H	1.15
R12S	1.43
N14C	2.44
N14Q	1.67
N14T	1.8
N14V	2.21
N14W	2.69
N14P	1.8
N14K	1.72
N14H	1.58
N14S	1.96
N14Y	2.2

Variant	folding stability dG [kcal/mol]
N14G	1.55
N14M	2.22
N14L	2.39
N14A	1.84
N14I	2.2
N14E	1.2
N14F	2.4
N14D	1.1
N14R	2.11
T24H	1.13
T24S	1.06
T24G	0.995
T24Y	1.79
T24P	1.22
T24W	2.13
T24K	1.07
T24E	0.926
T24V	2.13
T24Q	1.02
T24R	1.25
T24A	1.41
T24M	1.82
T24D	0.925
T24I	2.24

Variant	folding stability dG [kcal/mol]
T24F	2.01
T24L	2.19
T24N	1.28
R15A	1.55
R15C	2.36
R15I	2.41
R15H	1.42
R15E	1.23
R15S	1.25
R15G	1.29
R15Y	1.84
R15W	2.45
R15T	1.4
R15K	1.25
R15N	1.26
R15F	2.37
R15V	2.08
R15D	1.22
R15M	1.75
R15P	1.11
R15L	2.07
R15Q	1.08
